Laboratory results: paper PMC4140855, “Production of an Attenuated Phenol-Soluble Modulin Variant Unique to the MRSA Clonal Complex 30 Increases Severity of Bloodstream Infection” (PLoS Pathogens, 2014)
Where no end group is shown, it is not given here. The star is where a group is joined. For = O=C*

Legend:
Test in all cases: Ca2+ flux in FPR-transfected HL60 cells, one-site binding model
FPR1 = molecular target: T1, FPR1 (Homo sapiens, UniProt P21462)
T1 chain: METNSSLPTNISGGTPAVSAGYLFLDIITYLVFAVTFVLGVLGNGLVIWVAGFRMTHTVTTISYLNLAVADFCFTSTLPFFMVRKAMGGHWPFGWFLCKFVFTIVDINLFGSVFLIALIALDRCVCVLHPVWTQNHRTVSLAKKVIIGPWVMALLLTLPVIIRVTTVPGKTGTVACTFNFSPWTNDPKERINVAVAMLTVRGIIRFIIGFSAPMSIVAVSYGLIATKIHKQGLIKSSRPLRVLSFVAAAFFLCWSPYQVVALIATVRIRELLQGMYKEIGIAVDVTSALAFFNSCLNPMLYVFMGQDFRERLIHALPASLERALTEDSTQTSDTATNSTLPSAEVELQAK

FPR2 = molecular target: T2, FPR2 (Homo sapiens, UniProt P25090)
T2 chain: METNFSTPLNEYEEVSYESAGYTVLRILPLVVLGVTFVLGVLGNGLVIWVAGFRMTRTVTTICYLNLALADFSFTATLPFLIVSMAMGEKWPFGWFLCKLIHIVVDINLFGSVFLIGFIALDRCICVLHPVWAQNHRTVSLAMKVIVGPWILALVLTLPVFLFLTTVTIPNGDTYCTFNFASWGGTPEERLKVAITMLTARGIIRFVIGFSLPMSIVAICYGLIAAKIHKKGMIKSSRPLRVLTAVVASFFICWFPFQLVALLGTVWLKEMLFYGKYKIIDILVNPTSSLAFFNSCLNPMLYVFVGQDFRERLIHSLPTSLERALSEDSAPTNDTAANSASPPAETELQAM

FPR3 = molecular target: T3, FPR3 (Homo sapiens, UniProt P25089)
T3 chain: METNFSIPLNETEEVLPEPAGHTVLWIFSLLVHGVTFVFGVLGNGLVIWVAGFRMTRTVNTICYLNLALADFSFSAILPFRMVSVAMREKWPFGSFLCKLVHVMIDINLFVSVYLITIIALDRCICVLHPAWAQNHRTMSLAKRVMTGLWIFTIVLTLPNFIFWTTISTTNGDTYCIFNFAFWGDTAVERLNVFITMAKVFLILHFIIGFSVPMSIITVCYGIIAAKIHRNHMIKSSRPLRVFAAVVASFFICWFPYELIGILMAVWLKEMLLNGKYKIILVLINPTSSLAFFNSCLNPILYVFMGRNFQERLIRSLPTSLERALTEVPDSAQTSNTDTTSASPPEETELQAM

Question: Which Kd (FPR1) does the source give for For-MEFVAKLFKFFKDLLGKFLGNN [PSMα3] here?
Answer: 616 nM

Question: And the Kd (FPR2)?
Answer: 11.9 nM

Question: And the Kd (FPR3)?
Answer: 1380 nM
